The values that follow come from publication PMC5405149.

In the series the target is T1, r-YycF (His-GB1-YycF) (Staphylococcus epidermidis (1457?)) (UniProt Q8CQK0).
T1 sequence: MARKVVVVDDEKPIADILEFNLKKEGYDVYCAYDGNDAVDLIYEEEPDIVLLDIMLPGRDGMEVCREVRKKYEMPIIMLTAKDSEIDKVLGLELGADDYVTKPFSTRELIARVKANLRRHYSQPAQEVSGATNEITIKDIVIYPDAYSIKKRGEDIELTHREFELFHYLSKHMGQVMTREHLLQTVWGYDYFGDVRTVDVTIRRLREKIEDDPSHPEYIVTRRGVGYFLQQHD
As to the kind of experiment: EMSA. To be noted: EMSA: 20 nM DNA, 10 mM Tris pH 8.0, 25 mM KCl, 1 mM EDTA, 2.5 mM MgCl2, 5% glycerol, 37 C 30 min; footprinting: 200 ng probe, binding at 30 C 30 min, DNase I ….
As to “AAACTAAATTGACCATCACTTAACTAGGTGCTCTGTTAAACTTTTGTTATAAATTAAAGATAGAAGCAACCTATTCATATAAAGTGGTATCTCTTGACAATTTTACTCGTTTATAAGATGTTATAATTATGTAGTGTATAAGGAGGCATA (double strand) [rpsA promoter 150 bp]”, the binding result is “binds”. With “ATAATGCTAGAGGGACTTTTTCTAAAGACAGTCTACTTATTCGACTATCTATTAAGGTGGTTCATGGTAAAATGATACTAGTTTCATAACAAATCATTTACAATTTTGAATTACATCTTTAGAAATACGAGTTAATTGTTTAAGATGTAGCGTGAGGTG (double strand) [arlR promoter 159 bp]”, the binding entry is recorded as “binds”. Under “ATGATAGGAATCATTACGGTTATTCATAAAAATTAGCATCCTATTTCATGTAATTGTAGTGTAAAAAATAGGCGTTTATTTTTATTTCAGTGTAACCTGCACG (double strand) [sceD promoter 103 bp]” stands “binds”.

In the case of “ATTATTCAAATGCTTGTAGTTTTATAAGTCGCATTATTATTTTTAAATATTTTCACTATTGAATGGATTTTGATCTTCTTTATAAAAAATAAATAAAAGGTTTAAAGTTAAATAAAATTTAAAAAATAATAATTTATACAAAATGATATTTTTTTTAATCATAAATAATATGTAAAGTATTGCGTTAAAATGTAAAAGAAGGTAACATTACATACTAGATACATAAAATATATGTATCTTACATTTAAAATTAAATACATGGGAGGTATAAT (double strand) [aap promoter]”, the binding result is reported as “binds”.

Turning to “CACATTGCTATGTTAATTATTATCAAAAAGAATTTTCAGTAATTTTACATTCATGTAACAGTGTTTGTGTTGCTCAAAATAAAATACTTTAAAAAAGCTGAGCGTATCATTTCTATTCATATTACATAAATTAATTGGGTTAAATGAGATTGTGTAACAATATTAGCAAAAAATTACAAATCAATAACAATGCACACAAACATCAATTTTTCTGTTAGAGTATGGCTTGTCG (double strand) [ssaA1 promoter 232 bp]”, the binding entry is recorded as “binds”.

As for “CACGATTTTAGTATTGTCTTCAAAAAATCTTAGTATTTGCTATATATTATGTTAATACATGTATATCTTAGCATTATTTAAATAAGGAATGAATTATTTAAAGGTGAGCGCAACAAAATTTTAAGTATATTTTAACACTACCTTAACAGTCTTTAATGAATGATTTTATCACTATCTAATAGAACGTG (double strand) [murE promoter 188 bp]”, the binding entry is “binds”. On to “CATCTATTCATTCAATCAAGTATTTTTATTCTTTATAAAACTATGTTAGCAAATTAAATTTTAATACACGTTTCATTAATTCAAATCCCATTCTTAACAAAAAATTTACAATAACTCTATTTTGATTTAATAAAAGATATGTAACATGAGAACTGTAAGAAATACATAT (double strand) [pstS promoter 167 bp]”, for which the binding entry is listed as “binds”. Under “TGATTTTATCGCTCATCATTTTTAATAAGATTATGAGACACTTATGTAAAAATTTAATATCTAGTTTGTTAAGAATTTGTAAATAGAATTGTGGTTATGTAAATTTTGTGATATTTTCAAGTAGGGACAAAACTGGATGTTGGCGAACATCAATAAATGATTACTATATATTAAATTTACACAATTTTTACAATATAAGAATTGCTAGTTACTTTTTATAATAATTGTAAATCAGTTCCTCAACCACTT (double strand) [pitR promoter 249 bp]” stands “binds”; under “TTACAAACCCCGTCATATCTAGGACTAACAGACCTCAATTATATAAATAAGTAATTTTTTTTGAACATACTCTTGTAAATATTGTGTAATAAACTAAAATTATTGGTAAGCCCTACATTTGTAGTATTAGGAGGTCAAAAAAAGTGTCAAAATTTAAGTCTTTGCTTCTATTATTTGGCA (double strand) [qoxB promoter 180 bp]”, “binds”.

For “TTCTAAAATCTCCCCCTTATTCAATTTTCTAAAAATATATTACAGAAAAATTAAGTTAAAATTACAAATATTACTGTTTCAGTATAACAACATTCTATTGCAAATTGAAATACTTTCGATTAGCATATGCTTTACAACCTAACTAACGAAAGGTAGGTGAAAAA (double strand) [ica intergenic region (icaR-icaA)]”, the binding result was “binds”.
